# Target: tir_eco27 tir (UniProt B7UM99)
# Sequence (B7UM99 whole entry): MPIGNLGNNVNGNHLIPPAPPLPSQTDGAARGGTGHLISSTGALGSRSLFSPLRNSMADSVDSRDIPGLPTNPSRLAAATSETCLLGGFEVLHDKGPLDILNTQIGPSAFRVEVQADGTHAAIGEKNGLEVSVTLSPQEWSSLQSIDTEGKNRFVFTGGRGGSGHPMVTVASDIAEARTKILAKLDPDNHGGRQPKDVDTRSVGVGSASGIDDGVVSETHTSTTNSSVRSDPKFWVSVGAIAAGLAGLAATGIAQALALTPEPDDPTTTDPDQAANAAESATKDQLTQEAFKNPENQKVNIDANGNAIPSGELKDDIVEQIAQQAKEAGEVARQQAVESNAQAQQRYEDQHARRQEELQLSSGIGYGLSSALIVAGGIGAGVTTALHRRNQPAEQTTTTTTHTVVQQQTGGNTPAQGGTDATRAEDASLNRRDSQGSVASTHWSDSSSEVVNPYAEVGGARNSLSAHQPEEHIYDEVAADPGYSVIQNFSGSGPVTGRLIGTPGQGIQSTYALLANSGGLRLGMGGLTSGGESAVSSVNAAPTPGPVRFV
# Chain of Tyrosine-protein phosphatase non-receptor type 6 (Homo sapiens), P29350 C453S (P29350 whole entry C453S): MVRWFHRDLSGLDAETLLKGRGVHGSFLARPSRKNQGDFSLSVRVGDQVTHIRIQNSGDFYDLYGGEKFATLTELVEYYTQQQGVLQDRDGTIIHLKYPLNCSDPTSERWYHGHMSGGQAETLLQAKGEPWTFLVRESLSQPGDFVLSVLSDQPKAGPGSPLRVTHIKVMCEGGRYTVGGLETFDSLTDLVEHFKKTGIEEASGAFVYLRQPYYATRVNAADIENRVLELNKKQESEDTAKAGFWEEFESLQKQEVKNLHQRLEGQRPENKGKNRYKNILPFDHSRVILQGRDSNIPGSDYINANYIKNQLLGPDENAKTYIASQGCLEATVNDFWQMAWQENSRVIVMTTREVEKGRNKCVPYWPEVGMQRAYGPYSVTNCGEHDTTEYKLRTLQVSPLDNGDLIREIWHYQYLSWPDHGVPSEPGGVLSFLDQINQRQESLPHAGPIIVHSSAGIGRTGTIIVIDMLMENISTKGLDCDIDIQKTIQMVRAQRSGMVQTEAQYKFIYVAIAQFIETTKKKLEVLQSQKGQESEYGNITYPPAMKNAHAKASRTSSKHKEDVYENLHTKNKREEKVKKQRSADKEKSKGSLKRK
substance,measurement,value
"Tyrosine-protein phosphatase non-receptor type 6 (Homo sapiens), P29350 C453S",effect of a mutation on the interaction,decreasing interaction
